T1: human matriptase-2 ECD protein his tag (human, UniProt Q8IU80 78-811)
T1 construct: also called human MTP-2 ECD; huMTP-2
T1 sequence: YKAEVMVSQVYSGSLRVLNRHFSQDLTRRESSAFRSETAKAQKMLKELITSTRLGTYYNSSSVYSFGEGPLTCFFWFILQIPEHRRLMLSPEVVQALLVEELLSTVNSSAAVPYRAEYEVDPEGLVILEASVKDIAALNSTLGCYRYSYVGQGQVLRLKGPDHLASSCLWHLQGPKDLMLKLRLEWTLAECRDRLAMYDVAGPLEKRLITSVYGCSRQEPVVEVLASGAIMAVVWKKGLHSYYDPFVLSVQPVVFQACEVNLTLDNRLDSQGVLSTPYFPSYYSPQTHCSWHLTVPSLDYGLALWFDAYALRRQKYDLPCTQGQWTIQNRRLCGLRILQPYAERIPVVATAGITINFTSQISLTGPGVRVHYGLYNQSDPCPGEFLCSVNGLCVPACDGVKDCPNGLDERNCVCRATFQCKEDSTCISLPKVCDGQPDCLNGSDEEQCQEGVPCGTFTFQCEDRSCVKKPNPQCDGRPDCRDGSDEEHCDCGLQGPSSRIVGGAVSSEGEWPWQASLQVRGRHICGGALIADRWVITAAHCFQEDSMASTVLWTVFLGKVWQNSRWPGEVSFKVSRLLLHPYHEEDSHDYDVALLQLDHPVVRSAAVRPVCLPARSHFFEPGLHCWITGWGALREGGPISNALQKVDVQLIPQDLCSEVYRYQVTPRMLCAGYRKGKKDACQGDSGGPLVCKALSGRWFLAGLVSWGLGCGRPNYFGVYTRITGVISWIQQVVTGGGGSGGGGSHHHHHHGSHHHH

T2: cyno matriptase-2 ECD protein his tag (cynomolgus, UniProt Q8IU80 84-811 (human entry))
T2 construct: aa 73-800 of A0A2K5VAP0 with C-terminal linker and His tag; also called cynomolgus MTP-2 ECD
T2 chain: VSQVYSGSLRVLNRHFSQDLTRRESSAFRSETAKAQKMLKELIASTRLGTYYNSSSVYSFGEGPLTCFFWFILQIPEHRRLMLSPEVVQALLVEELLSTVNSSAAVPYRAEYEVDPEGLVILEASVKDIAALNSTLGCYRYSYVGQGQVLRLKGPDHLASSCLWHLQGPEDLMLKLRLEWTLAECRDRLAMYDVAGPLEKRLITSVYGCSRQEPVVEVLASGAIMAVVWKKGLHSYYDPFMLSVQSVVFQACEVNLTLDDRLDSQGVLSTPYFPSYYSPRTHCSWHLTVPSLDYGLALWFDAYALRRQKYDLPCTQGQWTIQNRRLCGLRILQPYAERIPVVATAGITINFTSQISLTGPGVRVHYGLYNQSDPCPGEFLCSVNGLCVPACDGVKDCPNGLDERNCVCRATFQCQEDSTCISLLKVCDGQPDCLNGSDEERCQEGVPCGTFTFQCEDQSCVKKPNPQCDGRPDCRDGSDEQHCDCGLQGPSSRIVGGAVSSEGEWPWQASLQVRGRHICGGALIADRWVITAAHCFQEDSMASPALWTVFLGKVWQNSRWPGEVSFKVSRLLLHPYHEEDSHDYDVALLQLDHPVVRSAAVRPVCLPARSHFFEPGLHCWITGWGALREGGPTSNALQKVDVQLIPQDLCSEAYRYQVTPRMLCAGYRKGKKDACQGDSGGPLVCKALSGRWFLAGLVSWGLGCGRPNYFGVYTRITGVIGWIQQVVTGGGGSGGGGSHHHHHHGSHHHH

T3: mouse matriptase-2 ECD protein his tag (mouse, UniProt Q9DBI0 80-811)
T3 construct: aa 80-811 of Q9DBI0 with C-terminal linker and His tag; also called mouse MTP-2 ECD; moMTP-2
T3 sequence: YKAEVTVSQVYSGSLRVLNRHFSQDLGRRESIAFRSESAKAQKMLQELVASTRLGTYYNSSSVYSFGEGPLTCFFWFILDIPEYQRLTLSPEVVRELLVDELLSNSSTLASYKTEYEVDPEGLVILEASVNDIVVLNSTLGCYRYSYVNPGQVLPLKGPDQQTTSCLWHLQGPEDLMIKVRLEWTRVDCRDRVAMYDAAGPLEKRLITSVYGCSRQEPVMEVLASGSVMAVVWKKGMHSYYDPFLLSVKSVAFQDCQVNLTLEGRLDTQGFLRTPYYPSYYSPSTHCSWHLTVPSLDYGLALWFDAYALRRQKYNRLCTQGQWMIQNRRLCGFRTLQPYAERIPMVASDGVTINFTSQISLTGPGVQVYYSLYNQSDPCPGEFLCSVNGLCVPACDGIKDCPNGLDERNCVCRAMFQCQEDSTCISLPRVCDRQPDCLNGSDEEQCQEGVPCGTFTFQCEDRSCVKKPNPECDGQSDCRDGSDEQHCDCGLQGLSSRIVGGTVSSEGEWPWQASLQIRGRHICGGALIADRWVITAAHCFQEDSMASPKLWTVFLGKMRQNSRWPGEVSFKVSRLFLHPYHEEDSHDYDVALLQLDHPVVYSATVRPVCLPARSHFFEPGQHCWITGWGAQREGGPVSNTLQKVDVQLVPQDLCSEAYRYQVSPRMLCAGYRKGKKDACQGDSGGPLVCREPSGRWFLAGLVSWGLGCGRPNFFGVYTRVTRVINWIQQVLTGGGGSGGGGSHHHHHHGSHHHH


What was measured:
Assay in all cases: SPR, his-tagged MTP-2 ECD protein (Table W)
[1] = target: T1, human matriptase-2 ECD protein his tag
Procedure: (§1) Off-rate screening was performed by surface plasmon resonance (SPR), using a Biacore 8K system (GE Healthcare). Anti-human Fc mix (˜1000 RU) were immobilised in both active and reference channels in HBS-P+ buffer (GE BR100671) pH 7.4. Anti-MTP-2 hulgG4PE antibodies were then captured for 60 sec at 10 μl/min at 1 μg/ml concentration (approximatively 35 and 50 RU were captured) only on the active channel. MTP-2 ECD protein analytes were then injected (at 100, 25, 6.25, 1.56 and 0 nM concentrations) for 120 sec (association time) at 30 μl/min and dissociation monitored for 600 sec. Multiple cycle kinetics mode was used with all 8 channels being used. Reference and background were subtracted from the sensorgrams for each antibody and data was fitted using a 1:1 interaction model in the Biacore evaluation software. Rmax, ka, kd globally fitted, RI=0.
(§2) NORI-011, NORI-008, NORI-003 and NORI-006 were all found to have cross-reactive binding to human, mouse, cyno and rat MTP-2 ECD proteins. […] The true KD value for NORI-008 could not be measured accurately for human or mouse MTP-2 due to a very slow off-rate.

[2] = target: T2, cyno matriptase-2 ECD protein his tag
Procedure: as §1, §2

[3] = target: T3, mouse matriptase-2 ECD protein his tag
Procedure: as §1, §2

Row | Kd [1] [nM] | Kd [2] [nM] | Kd [3] [nM] | Binder
1 | 2.93 | 0.824 | 27 | NORI-006 (antibody, human IgG4 S228P, kappa, V domains shown, human IgG4PE, kappa) VH: EVQLVESGGGLIKPGRSLRLSCTGSGFTFGDFGLSWFRQAPGKGLEWISFIRSKPYGGTTDYAASVKGRFTISRDDSKNVAYLQMNSLKTEDTAVYYCARNEILTGYYIFDYWGQGTLVTVSS VL: DIQMTQSPSSLSASLGDRVTITCQASQDINNYLNWYQVQPGKAPKLLIFDASILETGVPSRFSGSGSGTDFSFTISSLQPEDIATYYCQQYDNLPLTFGGGTKVDFKR
2 | 5.61 | 2.17 | 9 | NORI-011 (antibody, human IgG4 S228P, lambda, human IgG4PE, lambda; NORI-010 with a P124S mutation in the VH domain) heavy: not shown light: QSALTQPPSASGSPGQSVTISCTGTSSDVGFYNFVSWYQQHPDKAPKVMIYEVSKRPSGVPDRFSGSKSGNTASLTVSGLQAEDEADYYCSSYAGSNKVVFGGGTKLTVLGQPKAAPSVTLFPPSSEELQANKATLVCLISDFYPGAVTVAWKADSSPVKAGVETTTPSKQSNNKYAASSYLSLTPEQWKSHRSYSCQVTHEGSTVEKTVAPTECS

Further lines, the binder ahead of its results:

Row | Binder | Kd [1] [nM] | Kd [2] [nM] | Kd [3] [nM]
3 | NORI-003 (antibody, human IgG4 S228P, kappa, V domains shown, human IgG4PE, kappa; NORI-002 with the free cysteine of the VH domain mutated (printed as 'C49C')) VH: EVQLVESGGGLVKPGRSLRLSCTGSGFTFGDFGMSWFRQAPGKGLEWVGFIRSKPYGGTTDYAPSVRGRFSISRDDSKGIVYLQMNSLRTEDTAVYYCSRNEILTGYYIFDYWGQGTLVTVSS VL: DIQMTQSPSSLSASLGDRVTITCQASHDITNYLIWYQQKPGKAPRLLIFDASILETGVPSRFSGSGSGTDFTFTISSLQPEDFATYYCQQYYNLPLTFGGGTKVDIKR | 5.24 | 1.76 | 28.9
4 | NORI-008 (antibody, human IgG4 S228P, kappa, V domains shown, human IgG4PE, kappa, in the in vitro assays; a mouse IgG1 format was used in one in vivo study only; also called NORI-008 hulgG4PE; NORI-008 IgG) VH: QVQLQESGPGLVKPSETLSLTCSVSGGSVSSGRYYWTWIRQPPGKGLEWIGYISNSGNTNYNPSLKSRVTISLDTSKKQFSLSLSAVTAADTAVYYCARGFIYDYWFDPWGQGSLVTVSS VL: DSQMTQSPSSLSASVGDRVTITCQASQDIDNYLNWYQQRPGKAPKLLIYDASKLETGVPSRFSGSGSGTDFTFTISSLQPEDFATYYCQQYGNLPITFGQGTRLDIKR |  | 0.0104 | 

Reference: patent US20230025129A1 (KYMAB, published 2023)
